# B1: IgA-protease protein from Neisseria gonorrhoeae (protein)
# chain: ALVRDDVDYQIFRDFAENKGKFFVGATDLSVKNKRGQNIGNALSNVPMIDFSVADVNKRIATVVDPQYAVSVKHAKAEVHTFYYGQYNGHNDVADKENEYRVVEQNNYEPHKAWGASNLGRLEDYNMARFNKFVTEVAPIAPTDAGGGLDTYKDKNRFSSFVRIGAGRQLVYEKGVYHQEGNEKGYDLRDLSQAYRYAIAGTPYKDINIDQTMNTEGLIGFGNHNKQYSAEELKQALSQDALTNYGVLGDSGSPLFAFDKQKNQWVFLGTYDYWAGYGKKSWQEWNIYKKEFADKIKQHDNAGTVKGNGEHHWKTTGTNSHIGSTAVRLANNEGDANNGQNVTFEDNGTLVLNQNINQGAGGLFFKGDYTVKGANNDITWLGAGIDVADGKKVVWQVKNPNGDRLAKIGKGTLEINGTGVNQGQLKVGDGTVILNQKADADKKVQAFSQVGIVSGRGTLVLNSSNQINPDNLYFGFRGGRLDANGNDLTFEHIRNVDEGARIVNHNTDHASTITLTGKSLITNPNSLSVHSIQNDYDEDDYSYYYRPRRPIPQGKDLYYKNYRYYALKSGGRLNAPMPENGVAENNDWIFMGYTQEEARKNAMNHKNNRRIGDFGGFFDEENGKGHNGALNLNFNGKSAQKRFLLTGGANLNGKISVTQGNVLLSGRPTPHARDFVNKSSARKDAHFSKNNEVVFEDDWINRTFKAAEIAVNQSASFSSGRNVSDITANITATDNAKVNLGYKNGDEVCVRSDYTGYVTCNTGNLSDKALNSFDATRINGNVNLNQNAALVLGKAALWGKIQGQGNSRVSLNQHSKWHLTGDSQVHNLSLADSHIHLNNASDAQSANKYHTIKINHLSGNGHFHYLTDLAKNLGDKVLVKESASGHYQLHVQNKTGEPNQEGLDLFDASSVQDRSRLFVSLANHYVDLGALRYTIKTENGITRLYNPYAGNGRPVKPAP
# Target: tetranectin-apolipoprotein A-I fusion polypeptide precursor polypeptide
protein,measurement,value
B1,Cleavage activity,Cleavage activity was in the expected range.

# From patent US20150376674
